Reference: patent publication US20110091463A1 (AbbVie / Abbott, published 2011)

How the values were obtained:
[1] = target: NGF (Neuroscreen-1 bioassay); assay: cell-based or functional assay
[2] = target: T1, IL-6R on TF-1 cells (UniProt P08887 20-468, limits assumed); assay: cell-based or functional assay
T1 sequence (looked up): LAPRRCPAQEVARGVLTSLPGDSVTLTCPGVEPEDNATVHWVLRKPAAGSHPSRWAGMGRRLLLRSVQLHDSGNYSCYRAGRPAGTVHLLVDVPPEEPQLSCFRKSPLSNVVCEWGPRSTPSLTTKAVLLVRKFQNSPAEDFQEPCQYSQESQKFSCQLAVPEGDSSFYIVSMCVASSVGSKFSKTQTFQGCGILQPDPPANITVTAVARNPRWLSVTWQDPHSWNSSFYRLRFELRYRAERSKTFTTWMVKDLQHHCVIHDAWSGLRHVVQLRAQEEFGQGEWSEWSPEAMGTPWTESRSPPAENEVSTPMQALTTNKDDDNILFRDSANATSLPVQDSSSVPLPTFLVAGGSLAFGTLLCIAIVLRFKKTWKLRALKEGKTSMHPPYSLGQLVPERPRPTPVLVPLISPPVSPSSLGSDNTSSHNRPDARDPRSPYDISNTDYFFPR

[3] = target: T2, Recombinant Human IL-6 sR (human, UniProt P08887 20-358, limits assumed); assay: SPR (Biacore), antibody captured on chip, antigen injected, 25 C
T2 construct: Bought soluble receptor ('sR'); also called IL-6R
T2 sequence (looked up): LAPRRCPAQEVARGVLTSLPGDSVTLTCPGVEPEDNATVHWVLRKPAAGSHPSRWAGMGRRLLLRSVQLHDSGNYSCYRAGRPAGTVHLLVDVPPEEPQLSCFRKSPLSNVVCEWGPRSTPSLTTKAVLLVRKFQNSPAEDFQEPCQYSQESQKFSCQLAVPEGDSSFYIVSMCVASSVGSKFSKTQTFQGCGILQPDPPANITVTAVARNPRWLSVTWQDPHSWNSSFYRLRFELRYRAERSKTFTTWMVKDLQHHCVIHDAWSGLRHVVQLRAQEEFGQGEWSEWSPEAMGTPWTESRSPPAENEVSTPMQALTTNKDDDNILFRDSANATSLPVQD
Procedure: (§1) The BIACORE assay (Biacore, Inc, Piscataway, N.J.) determines the affinity of antibodies or DVD-Ig with kinetic measurements of on-rate and off-rate constants. Binding of antibodies or DVD-Ig to a target antigen (for example, a purified recombinant target antigen) is determined by surface plasmon resonance-based measurements with a Biacore® 1000 or 3000 instrument (Biacore® AB, Uppsala, Sweden) using running HBS-EP (10 mM HEPES [pH 7.4], 150 mM NaCl, 3 mM EDTA, and 0.005% surfactant P20) at 25° C. All chemicals are obtained from Biacore® AB (Uppsala, Sweden) or otherwise from a different source as described in the text. For example, approximately 5000 RU of goat anti-mouse IgG, (Fcγ), fragment specific polyclonal antibody (Pierce Biotechnology Inc, Rockford, Ill.) diluted in 10 mM sodium acetate (pH 4.5) is directly immobilized across a CM5 research grade biosensor chip using a standard amine coupling kit according to manufacturer's instructions and procedures at 25 μg/ml. Unreacted moieties on the biosensor surface are blocked with ethanolamine. Modified carboxymethyl dextran surface in flowcell 2 and 4 is used as a reaction surface. Unmodified carboxymethyl dextran without goat anti-mouse IgG in flow cell 1 and 3 is used as the reference surface. For kinetic analysis, rate equations derived from the 1:1 Langmuir binding model are fitted simultaneously to association and dissociation phases of all eight injections (using global fit analysis) with the use of Biaevaluation 4.0.1 software. Purified antibodies or DVD-Ig are diluted in HEPES-buffered saline for capture across goat anti-mouse IgG specific reaction surfaces. Antibodies or DVD-Ig to be captured as a ligand (25 μg/ml) are injected over reaction matrices at a flow rate of 5 μl/min. The association and dissociation rate constants, kₒₙ (M⁻¹ s⁻¹) and koff (s⁻¹) are determined under a continuous flow rate of 25 μl/min. Rate constants are derived by making kinetic binding measurements at different antigen concentrations ranging from 10-200 nM. The equilibrium dissociation constant (M) of the reaction between antibodies or DVD-Igs and the target antigen is then calculated from the kinetic rate constants by the following formula: KD=koff/kₒₙ. Binding is recorded as a function of time and kinetic rate constants are calculated.

[4] = target: T3, Recombinant Human β-NGF (human, UniProt P01138 122-241); assay: as above
T3 construct: Bought reagent
Procedure: as §1

[5] = target: IL-1β (MRC5 bioassay); assay: cell-based or functional assay
[6] = target: T4, Recombinant Human IL-1β (human, UniProt P01584 117-269); assay: SPR (Biacore), DVD-Ig captured on chip, antigen injected, 25 C
T4 construct: Bought reagent; also called IL-1b; Il-1b
Procedure: as §1, with “Antibodies or DVD-Ig to be captured as a ligand (25 μg/ml) are injected over reaction matrices at a flow rate of 5 μl/min.” left out, “Rate constants are derived by making kinetic binding measurements at different antigen concentrations ranging from 10-200 nM.” left out

NGF (Neuroscreen-1 bioassay), sequence (P01138 122-241): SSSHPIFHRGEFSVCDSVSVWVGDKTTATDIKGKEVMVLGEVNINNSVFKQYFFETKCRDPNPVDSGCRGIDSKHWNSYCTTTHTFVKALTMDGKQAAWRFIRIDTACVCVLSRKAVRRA
T3 sequence (P01138 122-241 limits assumed): as the sequence (P01138 122-241) above
IL-1β (MRC5 bioassay), sequence (P01584 117-269): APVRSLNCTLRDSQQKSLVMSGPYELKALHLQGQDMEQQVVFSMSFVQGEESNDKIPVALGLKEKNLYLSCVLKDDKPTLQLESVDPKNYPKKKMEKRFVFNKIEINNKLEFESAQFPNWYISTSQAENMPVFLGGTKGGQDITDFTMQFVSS

B1: DVD933 (bispecific antibody, human IgG1, kappa)
heavy: not shown
light: DIQMTQSPSSLSASVGDRVTITCRASEDIYNALAWYQQKPGKAPKLLIYNTDTLHTGVPSRFSGSGSGTDYTLTISSLQPEDFATYFCQHYFHYPRTFGQGTKVEIKRTVAAPDVLMTQTPLSLPVTPGEPASISCTSSQNIVHSNGNTYLEWYLQKPGQSPQLLIYKVSNRFSGVPDRFSGSGSGTDFTLKISRVEAEDVGVYYCFQVSHVPYTFGGGTKVEIKRTVAAPSVFIFPPSDEQLKSGTASVVCLLNNFYPREAKVQWKVDNALQSGNSQESVTEQDSKDSTYSLSSTLTLSKADYEKHKVYACEVTHQGLSSPVTKSFNRGEC
[1]
  N-Terminal VD NGF Inhibition Assay EC50 pM (ERK1/2 phosphorylation in Neuroscreen-1 cells): 49 pM

B2: DVD1207 (bispecific antibody, human IgG1, kappa)
heavy: not shown
light: DIQMTQSPSSLSASVGDRVTITCRASQDISSYLNWYQQKPGKAPKLLIYYTSRLHSGVPSRFSGSGSGTDFTFTISSLQPEDIATYYCQQGNTLPYTFGQGTKVEIKRTVAAPDIQMTQSPSSLSASVGDRVTITCRASEDIYNALAWYQQKPGKAPKLLIYNTDTLHTGVPSRFSGSGSGTDYTLTISSLQPEDFATYFCQHYFHYPRTFGQGTKVEIKRTVAAPSVFIFPPSDEQLKSGTASVVCLLNNFYPREAKVQWKVDNALQSGNSQESVTEQDSKDSTYSLSSTLTLSKADYEKHKVYACEVTHQGLSSPVTKSFNRGEC
[1]
  C-Terminal VD NGF Inhibition Assay EC50 pM (ERK1/2 phosphorylation in Neuroscreen-1 cells): > 5000 pM
[2]
  N-Terminal VD IL-6 Inhibition Assay EC50 µM (IL-6 induced pSTAT3 in TF-1 cells): 0.089 µM

B3: AB054 (antibody, V domains shown)
VH: EVQLQESGPGLVRPSQTLSLTCTVSGYSITSDHAWSWVRQPPGRGLEWIGYISYSGITTYNPSLKSRVTMLRDTSKNQFSLRLSSVTAADTAVYYCARSLARTTAMDYWGQGSLVTVSS
VL: DIQMTQSPSSLSASVGDRVTITCRASQDISSYLNWYQQKPGKAPKLLIYYTSRLHSGVPSRFSGSGSGTDFTFTISSLQPEDIATYYCQQGNTLPYTFGQGTKVEIKR
notes: Parent antibody; also called IL-6R parent antibody; AB054VH
[3]
  Kd: 0.614 nM
  koff: 0.000206 s⁻¹
  kon: 336000 M⁻¹ s⁻¹
[2]
  IL-6 Inhibition Assay EC50 µM (IL-6 induced pSTAT3 in TF-1 cells): 0.07 µM

B4: AB020 (antibody, V domains shown)
VH: QVQLQESGPGLVKPSETLSLTCTVSGFSLIGYDLNWIRQPPGKGLEWIGIIWGDGTTDYNSAVKSRVTISKDTSKNQFSLKLSSVTAADTAVYYCARGGYWYATSYYFDYWGQGTLVTVSS
VL: DIQMTQSPSSLSASVGDRVTITCRASQSISNNLNWYQQKPGKAPKLLIYYTSRFHSGVPSRFSGSGSGTDFTFTISSLQPEDIATYYCQQEHTLPYTFGQGTKLEIKR
notes: Parent antibody; also called AB020VH
[4]
  Kd: 0.00673 nM
  koff: 4.08e-06 s⁻¹
  kon: 606000 M⁻¹ s⁻¹

B5: DVD950 (bispecific antibody, human IgG1, kappa)
heavy: not shown
light: DIQMTQSPSSLSASVGDRVTITCRASGNIHNYLTWYQQTPGKAPKLLIYNAKTLADGVPSRFSGSGSGTDYTFTISSLQPEDIATYYCQHFWSIPYTFGQGTKLQITTVAAPDIQMTQSPSSLSASVGDRVTITCRASEDIYNALAWYQQKPGKAPKLLIYNTDTLHTGVPSRFSGSGSGTDYTLTISSLQPEDFATYFCQHYFHYPRTFGQGTKVEIKRTVAAPSVFIFPPSDEQLKSGTASVVCLLNNFYPREAKVQWKVDNALQSGNSQESVTEQDSKDSTYSLSSTLTLSKADYEKHKVYACEVTHQGLSSPVTKSFNRGEC
notes: DVD-Ig; also called DVD950H; DVD950L
[5]
  C-Terminal VD IL-1β Neutralization Assay EC50 nM (IL-8 release by MRC5 cells): 26 nM
[6]
  Kd: 0.495 nM
  koff: 0.000487 s⁻¹
  kon: 983000 M⁻¹ s⁻¹
[1]
  C-Terminal VD NGF Inhibition Assay EC50 pM (ERK1/2 phosphorylation in Neuroscreen-1 cells): 316 pM

B6: DVD949 (bispecific antibody, human IgG1, kappa)
heavy: not shown
light: DIQMTQSPSSLSASVGDRVTITCRASEDIYNALAWYQQKPGKAPKLLIYNTDTLHTGVPSRFSGSGSGTDYTLTISSLQPEDFATYFCQHYFHYPRTFGQGTKVEIKRTVAAPDIQMTQSPSSLSASVGDRVTITCRASGNIHNYLTWYQQTPGKAPKLLIYNAKTLADGVPSRFSGSGSGTDYTFTISSLQPEDIATYYCQHFWSIPYTFGQGTKLQITTVAAPSVFIFPPSDEQLKSGTASVVCLLNNFYPREAKVQWKVDNALQSGNSQESVTEQDSKDSTYSLSSTLTLSKADYEKHKVYACEVTHQGLSSPVTKSFNRGEC
[5]
  N-Terminal VD IL-1β Neutralization Assay EC50 nM (IL-8 release by MRC5 cells): 0.148 nM
[1]
  N-Terminal VD NGF Inhibition Assay EC50 pM (ERK1/2 phosphorylation in Neuroscreen-1 cells): 55 pM

B7: DVD934 (bispecific antibody, human IgG1, kappa)
heavy: not shown
light: DVLMTQTPLSLPVTPGEPASISCTSSQNIVHSNGNTYLEWYLQKPGQSPQLLIYKVSNRFSGVPDRFSGSGSGTDFTLKISRVEAEDVGVYYCFQVSHVPYTFGGGTKVEIKRTVAAPDIQMTQSPSSLSASVGDRVTITCRASEDIYNALAWYQQKPGKAPKLLIYNTDTLHTGVPSRFSGSGSGTDYTLTISSLQPEDFATYFCQHYFHYPRTFGQGTKVEIKRTVAAPSVFIFPPSDEQLKSGTASVVCLLNNFYPREAKVQWKVDNALQSGNSQESVTEQDSKDSTYSLSSTLTLSKADYEKHKVYACEVTHQGLSSPVTKSFNRGEC
[1]
  C-Terminal VD NGF Inhibition Assay EC50 pM (ERK1/2 phosphorylation in Neuroscreen-1 cells): > 5000 pM
